Assay results from patent publication US20100015650.

Biological target: T1, BRB1 tyrosine kinase substrate peptide
T1 chain: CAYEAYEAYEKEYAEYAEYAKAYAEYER

B1: MUSK (protein)
chain: CCRRRKQWKNKKRESAAVTLTTLPSELLLDRLHPNPMYQRMPLLLNPKLLSLEYPRNNIEYVRDIGEGAFGRVFQARAPGLLPYEPFTMVAVKMLKEEASADMQADFQREAALMAEFDNPNIVKLLGVCAVGKPMCLLFEYMAYGDLNEFLRSMSPHTVCSLSHSDLSMRAQVSSPGPPPLSCAEQLCIARQVAAGMAYLSERKFVHRDLATRNCLVGENMVVKIADFGLSRNIYSADYYKANENDAIPIRWMPPESIFYNRYTTESDVWAYGVVLWEIFSYGLQPYYGMAHEEVIYYVRDGNILSCPENCPVELYNLMRLCWSKLPADRPSFTSIHRILERMCERAEGTVSV
B1 was tested. Which Signal to Noise Ratio with BRB1 Peptide (TR-FRET kinase assay; kinase 1 nM) did it give?
The Signal to Noise Ratio with BRB1 Peptide (TR-FRET kinase assay; kinase 1 nM) was 3.1.

B2: PDGFRa (protein)
chain: KQKPRYEIRWRVIESISPDGHEYIYVDPMQLPYDSRWEFPRDGLVLGRVLGSGAFGKVVEGTAYGLSRSQPVMKVAVKMLKPTARSSEKQALMSELKIMTHLGPHLNIVNLLGACTKSGPIYIITEYCFYGDLVNYLHKNRDSFLSHHPEKPKKELDIFGLNPADESTRSYVILSFENNGDYMDMKQADTTQYVPMLERKEVSKYSDIQRSLYDRPASYKKKSMLDSEVKNLLSDDNSEGLTLLDLLSFTYQVARGMEFLASKNCVHRDLAARNVLLAQGKIVKICDFGLARDIMHDSNYVSKGSTFLPVKWMAPESIFDNLYTTLSDVWSYGILLWEIFSLGGTPYPGMMVDSTFYNKIKSGYRMAKPDHATSEVYEIMVKCWNSEPEKRPSFYHLSEIVENLLPGQYKKSYEKIHLDFLKSDHPAVARMRVDSDNAYIGVTYKNEEDKLKDWEGGLDEQRLSADSGYIIPLPDIDPVPEEEDLGKRNRHSSQTSEESAIETGSSSSTFIKREDETIEDIDMMDDIGIDSSDLVEDSFL
B2 was tested. Which Signal to Noise ratio with BRB1 Peptide (TR-FRET kinase assay; kinase 0.5 nM) did it give?
The Signal to Noise ratio with BRB1 Peptide (TR-FRET kinase assay; kinase 0.5 nM) was 8.

B3: PDGFRβ (protein)
chain: QKKPRYEIRWKVIESVSSDGHEYIYVDPMQLPYDSTWELPRDQLVLGRTLGSGAFGQVVEATAHGLSHSQATMKVAVKMLKSTARSSEKQALMSELKIMSHLGPHLNVVNLLGACTKGGPIYIITEYCRYGDLVDYLHRNKHTFLQHHSDKRRPPSAELYSNALPVGLPLPSHVSLTGESDGGYMDMSKDESVDYVPMLDMKGDVKYADIESSNYMAPYDNYVPSAPERTCRATLINESPVLSYMDLVGFSYQVANGMEFLASKNCVHRDLAARNVLICEGKLVKICDFGLARDIMRDSNYISKGSTFLPLKWMAPESIFNSLYTTLSDVWSFGILLWEIFTLGGTPYPELPMNEQFYNAIKRGYRMAQPAHASDEIYEIMQKCWEEKFEIRPPFSQLVLLLERLLGEGYKKKYQQVDEEFLRSDHPAILRSQARLPGFHGLRSPLDTSSVLYTAVQPNEGDNDYIIPLPDPKPEVADEGPLEGSPSLASSTLNEVNTSSTISCDSPLEPQDEPEPEPQLELQVEPEPELEQLPDSGCPAPRAEAEDSFL
B3 was tested. Which Signal to Noise ratio with BRB1 Peptide (TR-FRET kinase assay; kinase 0.25 nM) did it give?
Its Signal to Noise ratio with BRB1 Peptide (TR-FRET kinase assay; kinase 0.25 nM) is 4.7.

B4: LTK (protein)
chain: KQKKWQGLQEMRLPSPELELSKLRTSAIRTAPNPYYCQVGLGPAQSWPLPPGVTEVSPANVTLLRALGHGAFGEVYEGLVIGLPGDSSPLQVAIKTLPELCSPQDELDFLMEALIISKFRHQNIVRCVGLSLRATPRLILLELMSGGDMKSFLRHSRPHLGQPSPLVMRDLLQLAQDIAQGCHYLEENHFIHRDIAARNCLLSCAGPSRVAKIGDFGMARDIYRASYYRRGDRALLPVKWMPPEAFLEGIFTSKTDSWSFGVLLWEIFSLGYMPYPGRTNQEVLDFVVGGGRMDPPRGCPGPVYRIMTQCWQHEPELRPSFASILERLQYCTQDPDVLNSLLPMELGPTPEEEGTSGLGNRSLECLRPPQPQELSPEKLKSWGGSPLGPWLSSGLKPLKSRGLQPQNLWNPTYRS
B4 was tested. Which Signal to Noise Ratio with BRB1 Peptide (TR-FRET kinase assay; kinase 1 nM) did it give?
Its Signal to Noise Ratio with BRB1 Peptide (TR-FRET kinase assay; kinase 1 nM) is 13.7.

B5: BMX (protein)
chain: MDTKSILEELLLKRSQQKKKMSPNNYKERLFVLTKTNLSYYEYDKMKRGSRKGSIEIKKIRCVEKVNLEEQTPVERQYPFQIVYKDGLLYVYASNEESRSQWLKALQKEIRGNPHLLVKYHSGFFVDGKFLCCQQSCKAAPGCTLWEAYANLHTAVNEEKHRVPTFPDRVLKIPRAVPVLKMDAPSSSTTLAQYDNESKKNYGSQPPSSSTSLAQYDSNSKKIYGSQPNFNMQYIPREDFPDWWQVRKLKSSSSSEDVASSNQKERNVNHTTSKISWEFPESSSSEEEENLDDYDWFAGNISRSQSEQLLRQKGKEGAFMVRNSSQVGMYTVSLFSKAVNDKKGTVKHYHVHTNAENKLYLAENYCFDSIPKLIHYHQHNSAGMITRLRHPVSTKANKVPDSVSLGNGIWELKREEITLLKELGSGQFGVVQLGKWKGQYDVAVKMIKEGSMSEDEFFQEAQTMMKLSHPKLVKFYGVCSKEYPIYIVTEYISNGCLLNYLRSHGKGLEPSQLLEMCYDVCEGMAFLESHQFIHRDLAARNCLVDRDLCVKVSDFGMTRYVLDDQYVSSVGTKFPVKWSAPEVFHYFKYSSKSDVWAFGILMWEVFSLGKQPYDLYDNSQVVLKVSQGHRLYRPHLASDTIYQIMYSCWHELPEKRPTFQQLLSSIEPLREKDKH
For B5, which Signal to Noise ratio with BRB1 Peptide (TR-FRET kinase assay; kinase 0.5 nM) is on record?
Its Signal to Noise ratio with BRB1 Peptide (TR-FRET kinase assay; kinase 0.5 nM) is 7.1.

B6: IGF1R (protein)
chain: RKRNNSRLGNGVLYASVNPEYFSAADVYVPDEWEVAREKITMSRELGQGSFGMVYEGVAKGVVKDEPETRVAIKTVNEAASMRERIEFLNEASVMKEFNCHHVVRLLGVVSQGQPTLVIMELMTRGDLKSYLRSLRPEMENNPVLAPPSLSKMIQMAGEIADGMAYLNANKFVHRDLAARNCMVAEDFTVKIGDFGMTRDIYETDYYRKGGKGLLPVRWMSPESLKDGVFTTYSDVWSFGVVLWEIATLAEQPYQGLSNEQVLRFVMEGGLLDKPDNCPDMLFELMRMCWQYNPKMRPSFLEIISSIKEEMEPGFREVSFYYSEENKLPEPEELDLEPENMESVPLDPSASSSSLPLPDRHSGHKAENGPGPGVLVLRASFDERQPYAHMNGGRKNERALPLPQSSTC
How did the Signal to Noise ratio with BRB1 Peptide (TR-FRET kinase assay; kinase 0.25 nM) turn out when B6 was run?
The Signal to Noise ratio with BRB1 Peptide (TR-FRET kinase assay; kinase 0.25 nM) was 25.1.

B7: MET (protein)
chain: KKRKQIKDLGSELVRYDARVHTPHLDRLVSARSVSPTTEMVSNESVDYRATFPEDQFPNSSQNGSCRQVQYPLTDMSPILTSGDSDISSPLLQNTVHIDLSALNPELVQAVQHVVIGPSSLIVHFNEVIGRGHFGCVYHGTLLDNDGKKIHCAVKSLNRITDIGEVSQFLTEGIIMKDFSHPNVLSLLGICLRSEGSPLVVLPYMKHGDLRNFIRNETHNPTVKDLIGFGLQVAKGMKYLASKKFVHRDLAARNCMLDEKFTVKVADFGLARDMYDKEYYSVHNKTGAKLPVKWMALESLQTQKFTTKSDVWSFGVLLWELMTRGAPPYPDVNTFDITVYLLQGRRLLQPEYCPDPLYEVMLKCWHPKAEMRPSFSELVSRISAIFSTFIGEHYVHVNATYVNVKCVAPYPSLLSSEDNADDEVDTRPASFWETS
Which Signal to Noise ratio with BRB1 Peptide (TR-FRET kinase assay; kinase 0.5 nM) does the source give for B7 here?
Its Signal to Noise ratio with BRB1 Peptide (TR-FRET kinase assay; kinase 0.5 nM) is 24.2.

B8: MER (protein)
chain: KRVQETKFGNAFTEEDSELVVNYIAKKSFCRRAIELTLHSLGVSEELQNKLEDVVIDRNLLILGKILGEGEFGSVMEGNLKQEDGTSLKVAVKTMKLDNSSQREIEEFLSEAACMKDFSHPNVIRLLGVCIEMSSQGIPKPMVILPFMKYGDLHTYLLYSRLETGPKHIPLQTLLKFMVDIALGMEYLSNRNFLHRDLAARNCMLRDDMTVCVADFGLSKKIYSGDYYRQGRIAKMPVKWIAIESLADRVYTSKSDVWAFGVTMWEIATRGMTPYPGVQNHEMYDYLLHGHRLKQPEDCLDELYEIMYSCWRTDPLDRPTFSVLRLQLEKLLESLPDVRNQADVIYVNTQLLESSEGLAQGSTLAPLDLNIDPDSIIASCTPRAAISVVTAEVHDSKPHEGRYILNGGSEEWEDLTSAPSAAVTAEKNSVLPGERLVRNGVSWSHSSMLPLGSSLPDELLFADDSSEGSEVLM
With B8 as the protein, how does the Signal to Noise ratio with BRB1 Peptide (TR-FRET kinase assay; kinase 0.25 nM) read?
The Signal to Noise ratio with BRB1 Peptide (TR-FRET kinase assay; kinase 0.25 nM) was 12.9.

B9: KIT (protein)
chain: TYKYLQKPMYEVQWKVVEEINGNNYVYIDPTQLPYDHKWEFPRNRLSFGKTLGAGAFGKVVEATAYGLIKSDAAMTVAVKMLKPSAHLTEREALMSELKVLSYLGNHMNIVNLLGACTIGGPTLVITEYCCYGDLLNFLRRKRDSFICSKQEDHAEAALYKNLLHSKESSCSDSTNEYMDMKPGVSYVVPTKADKRRSVRIGSYIERDVTPAIMEDDELALDLEDLLSFSYQVAKGMAFLASKNCIHRDLAARNILLTHGRITKICDFGLARDIKNDSNYVVKGNARLPVKWMAPESIFNCVYTFESDVWSYGIFLWELFSLGSSPYPGMPVDSKFYKMIKEGFRMLSPEHAPAEMYDIMKTCWDADPLKRPTFKQIVQLIEKQISESTNHIYSNLANCSPNRQKPVVDHSVRINSVGSTASSSQPLLVHDDV
B9 was tested. Which Signal to Noise ratio with BRB1 Peptide (TR-FRET kinase assay; kinase 2 nM) did it give?
Its Signal to Noise ratio with BRB1 Peptide (TR-FRET kinase assay; kinase 2 nM) is 1.5.

B10: IRR (protein)
chain: YGKKRNRTLYASVNPEYFSASDMYVPDEWEVPREQISIIRELGQGSFGMVYEGLARGLEAGEESTPVALKTVNELASPRECIEFLKEASVMKAFKCHHVVRLLGVVSQGQPTLVIMELMTRGDLKSHLRSLRPEAENNPGLPQPALGEMIQMAGEIADGMAYLAANKFVHRDLAARNCMVSQDFTVKIGDFGMTRDVYETDYYRKGGKGLLPVRWMAPESLKDGIFTTHSDVWSFGVVLWEIVTLAEQPYQGLSNEQVLKFVMDGGVLEELEGCPLQLQELMSRCWQPNPRLRPSFTHILDSIQEELRPSFRLLSFYYSPECRGARGSLPTTDAEPDSSPTPRDCSPQNGGPGH
How did the Signal to Noise ratio with BRB1 Peptide (TR-FRET kinase assay; kinase 0.5 nM) turn out when B10 was run?
The Signal to Noise ratio with BRB1 Peptide (TR-FRET kinase assay; kinase 0.5 nM) was 19.2.

B11: HER4 (ERBB4) (protein)
chain: RRKSIKKKRALRRFLETELVEPLTPSGTAPNQAQLRILKETELKRVKVLGSGAFGTVYKGIWVPEGETVKIPVAIKILNETTGPKANVEFMDEALIMASMDHPHLVRLLGVCLSPTIQLVTQLMPHGCLLEYVHEHKDNIGSQLLLNWCVQIAKGMMYLEERRLVHRDLAARNVLVKSPNHVKITDFGLARLLEGDEKEYNADGGKMPIKWMALECIHYRKFTHQSDVWSYGVTIWELMTFGGKPYDGIPTREIPDLLEKGERLPQPPICTIDVYMVMVKCWMIDADSRPKFKELAAEFSRMARDPQRYLVIQGDDRMKLPSPNDSKFFQNLLDEEDLEDMMDAEEYLVPQAFNIPPPIYTSRARIDSNRSEIGHSPPPAYTPMSGNQFVYRDGGFAAEQGVSVPYRAPTSTIPEAPVAQGATAEIFDDSCCNGTLRKPVAPHVQEDSSTQRYSADPTVFAPERSPRGELDEEGYMTPMRDKPKQEYLNPVEENPFVSRRKNGDLQALDNPEYHNASNGPPKAEDEYVNEPLYLNTFANTLGKAEYLKNNILSMPEKAKKAFDNPDYWNHSLPPRSTLQHPDYLQEYSTKYFYKQNGRIRPIVAENPEYLSEFSLKPGTVLPPPPYRHRNTVV
With B11 as the protein, how does the Signal to Noise ratio with BRB1 Peptide (TR-FRET kinase assay; kinase 0.1 nM) read?
The Signal to Noise ratio with BRB1 Peptide (TR-FRET kinase assay; kinase 0.1 nM) was 3.1.
